This data set concerns the molecule itself. The data set is described as follows: crystal structure; nucleotide-free BchL crystallised anaerobically at 15 °C by vapor diffusion; 100 μM dimeric BchL in 100 mM Hepes pH 7.5, 150 mM NaCl, 10% glycerol, 1.7 mM dithionite; well 0.6 M NaCl, 0.1 M MES:NaOH pH 6.5, 20% PEG 4000; 2.6 Å.

B1: BchL (L-protein of dark-operative protochlorophyllide oxidoreductase, DPOR) from Rhodobacter sphaeroides (enzyme, UniProt Q9RFD6 1-297, looked up)
chain: MSPKDLTIPTGADGEGSVQVHLDEADKITGAKVFAVYGKGGIGKSTTSSNLSAAFSILGKRVLQIGCDPKHDSTFTLTGSLVPTVIDVLKDVDFHPEELRPEDFVFEGFNGVMCVEAGGPPAGTGCGGYVVGQTVKLLKQHHLLDDTDVVIFDVLGDVVCGGFAAPLQHADQAVVVTANDFDSIYAMNRIIAAVQAKSKNYKVRLAGCVANRSRATDEVDRFCKETNFRRLAHMPDLDAIRRSRLKKKTLFEMDEDQDVLAARAEYIRLAESLWRGLDPIDPHSLPDRDIFELLGFD
notes: BchL, Rhodobacter sphaeroides; coding region PCR-amplified from genomic DNA and cloned into pRSF-Duet 1 or pET-Duet 1; a TEV protease site follows the His tag; Homodimer with one [4Fe-4S] cluster at the dimer interface, ligated by two cysteines from each subunit; also called WT BchL
With B1, the binding result is given as “binds”.

(Values after paper PMC7948495, “The flexible N-terminus of BchL autoinhibits activity through interaction with its [4Fe-4S] cluster and released upon ATP binding” (The Journal of Biological Chemistry, 2020).)
